Results taken from the Human Domainome abundance scans (Beltran et al. 2025).
± gives the uncertainty stated by the source.

B1: Ankyrin-3, residues 4094 to 4171; numbered along this chain, Q12955 (parent)
chain: MAIVADHLGLSWTELARELNFSVDEINQIRVENPNSLISQSFMLLKKWVTRDGKNATTDALTSVLTKINRIDIVTLLE

Variants of: B1
Experiment: abundance fitness (aPCA) (normalised: wild type 0, dead -1); higher = more abundant; growth selection in yeast, the domain comes from the species named
Settings: Homo sapiens

Row | Variant | abundance fitness
1 | V31D | 0.058 ± 0.12
2 | S39M | -0.071 ± 0.094
3 | N55F | -0.15 ± 0.1
4 | A16N | -0.793 ± 0.23
5 | K47T | -0.149 ± 0.09
6 | N69G | 0.073 ± 0.047
7 | S36T | -0.297 ± 0.087
8 | E78V | -0.206 ± 0.075
9 | R17N | 0.231 ± 0.2
10 | V31R | 0.041 ± 0.044
11 | R30P | -0.232 ± 0.13
12 | T13K | -0.554 ± 0.21
13 | E25K | -0.808 ± 0.2
14 | V31H | 0.145 ± 0.098
15 | D72V | -0.644 ± 0.11
16 | S11Q | -0.053 ± 0.076
17 | K46M | -0.204 ± 0.1
18 | A16R | -0.893 ± 0.17
19 | V23D | -0.335 ± 0.16
20 | Q28A | 0.044 ± 0.054
21 | N69Y | -0.699 ± 0.12
22 | L61I | -0.355 ± 0.1
23 | F21S | -0.893 ± 0.13
24 | G53H | -0.3 ± 0.28

Row | Variant | abundance fitness
25 | L65H | -0.973 ± 0.2
26 | T50G | 0.026 ± 0.043
27 | S41F | -0.815 ± 0.36
28 | L19P | -0.855 ± 0.12
29 | T50S | -0.016 ± 0.054
30 | I29A | -0.768 ± 0.11
31 | T57K | -0.739 ± 0.25
32 | T62V | -0.057 ± 0.084
33 | R17S | -0.08 ± 0.04
34 | D24I | -0.4 ± 0.19
35 | V49G | -0.168 ± 0.044
36 | K46L | -0.377 ± 0.061
37 | T50H | 0.051 ± 0.081
38 | T13E | 0.005 ± 0.084
39 | D6K | 0.155 ± 0.038
40 | G53W | -0.849 ± 0.16
41 | N55V | -0.114 ± 0.062
42 | V31T | 0.026 ± 0.08
43 | V23A | -0.12 ± 0.07
44 | A5Y | -0.745 ± 0.34
45 | D24Y | -0.228 ± 0.14
46 | D52I | -0.255 ± 0.17
47 | V23I | -0.073 ± 0.24
48 | A5L | -0.921 ± 0.19

Row | Variant | abundance fitness
49 | V64N | -0.236 ± 0.35
50 | R51Q | -0.994 ± 0.21
51 | S63N | -0.106 ± 0.24
52 | G53E | -0.111 ± 0.072
53 | N20D | 0.093 ± 0.14
54 | T75S | -0.004 ± 0.056
55 | F21H | -0.842 ± 0.4
56 | K54W | -0.21 ± 0.07
57 | H7D | -0.796 ± 0.22
58 | T57E | -0.859 ± 0.17
59 | N69M | -0.61 ± 0.23
60 | N20P | -1 ± 0.16
61 | A60D | -0.627 ± 0.31
62 | F21D | -0.949 ± 0.34
63 | E32N | -0.074 ± 0.15
64 | L19V | -0.651 ± 0.1
65 | V23G | -0.004 ± 0.068
66 | Q40K | -0.35 ± 0.25
67 | F21G | -0.7 ± 0.082
68 | V64E | 0.001 ± 0.15
69 | Q28E | 0.035 ± 0.065
70 | T57D | -0.108 ± 0.11
71 | L15E | -0.766 ± 0.18
72 | L37Y | -0.141 ± 0.16

Row | Variant | abundance fitness
73 | T75H | -0.219 ± 0.15
74 | V31K | 0.044 ± 0.11
75 | Q40Y | -0.672 ± 0.28
76 | G53T | -0.521 ± 0.14
77 | V64R | -0.298 ± 0.12
78 | S11P | -1.03 ± 0.24
79 | W48L | -0.715 ± 0.11
80 | E78T | -0.063 ± 0.032
81 | D6S | -0.258 ± 0.063
82 | V49T | -0.115 ± 0.077
83 | K67A | -0.135 ± 0.078
84 | N33M | -0.143 ± 0.088
85 | T13C | -0.546 ± 0.14
86 | L76D | -0.351 ± 0.32
87 | K46R | -0.018 ± 0.041
88 | D59E | -0.103 ± 0.069
89 | T66S | -0.173 ± 0.051
90 | I38C | -0.038 ± 0.066
91 | A56R | -0.506 ± 0.059
92 | L77G | -0.68 ± 0.11
93 | T66P | -0.535 ± 0.064
94 | Q28N | -0.2 ± 0.16
95 | D52K | -0.358 ± 0.24
96 | N35S | -0.174 ± 0.058

Row | Variant | abundance fitness
97 | E14P | -0.583 ± 0.09
98 | E18R | -1.09 ± 0.21
99 | H7A | -0.11 ± 0.051
100 | P34M | -0.658 ± 0.14
101 | T57Q | -0.298 ± 0.11
102 | E25F | -0.771 ± 0.17
103 | R30W | -0.453 ± 0.17
104 | N20V | -0.608 ± 0.086
105 | E25N | -0.63 ± 0.28
106 | D72C | -0.958 ± 0.38
107 | E25P | -0.957 ± 0.13
108 | V49S | -0.034 ± 0.065
109 | T66E | -0.182 ± 0.16
110 | T58A | -0.051 ± 0.06
111 | K47V | -0.487 ± 0.079
112 | I29L | -0.456 ± 0.064
113 | E78W | -0.649 ± 0.36
114 | S39Q | 0.087 ± 0.086
115 | W12Q | -0.534 ± 0.3
116 | M43T | 0.033 ± 0.071
117 | N55C | -0.157 ± 0.13
118 | E78N | -0.014 ± 0.09
119 | A2D | 0.173 ± 0.074
120 | M43D | 0.028 ± 0.12

Row | Variant | abundance fitness
121 | S41A | 0.032 ± 0.061
122 | L76E | -0.185 ± 0.098
123 | S11E | -0.326 ± 0.066
124 | F42H | 0.119 ± 0.1
125 | I71H | -0.198 ± 0.12
126 | E25V | -0.344 ± 0.072
127 | L45V | -0.603 ± 0.084
128 | E32T | -0.155 ± 0.086
129 | L61T | -1.05 ± 0.25
130 | S11W | -1.05 ± 0.25
131 | A2H | -0.033 ± 0.077
132 | K54C | -0.088 ± 0.076
133 | V49Y | 0.021 ± 0.15
134 | I68E | -0.964 ± 0.34
135 | L65W | -0.901 ± 0.16
136 | A16S | -0.907 ± 0.14
137 | S36P | -0.878 ± 0.12
138 | L15M | -0.073 ± 0.084
139 | V64A | -0.081 ± 0.078
140 | E78L | -0.326 ± 0.088
141 | L77V | -0.139 ± 0.048
142 | S63W | -0.405 ± 0.086
143 | D59P | -0.058 ± 0.094
144 | R51T | -1.02 ± 0.29

Row | Variant | abundance fitness
145 | T62W | -0.434 ± 0.091
146 | I26Q | -0.594 ± 0.12
147 | S11A | -0.31 ± 0.073
148 | K46Q | 0.124 ± 0.074
149 | L19R | -0.79 ± 0.094
150 | I71N | -0.155 ± 0.22
151 | D72S | -0.855 ± 0.16
152 | V23R | -0.027 ± 0.044
153 | Q40T | -0.725 ± 0.13
154 | A56W | -0.458 ± 0.072
155 | K67S | -0.285 ± 0.072
156 | A56S | -0.517 ± 0.082
157 | M43L | -0.152 ± 0.054
158 | V23T | -0.023 ± 0.053
159 | Q40L | -0.833 ± 0.13
160 | Q28F | -0.479 ± 0.26
161 | D52H | -0.577 ± 0.2
162 | I26W | -0.871 ± 0.16
163 | P34N | -0.331 ± 0.2
164 | V74R | -0.827 ± 0.12
165 | F42T | 0.086 ± 0.087
166 | A16H | -0.601 ± 0.28
167 | I26V | -0.076 ± 0.074
